Key:
[1] = molecular target: T1, SpCBM70 (Streptococcus pneumoniae, UniProt Q54873); test: isothermal titration calorimetry; format: binding; settings: 25 °C, 25 mM Tris-HCl pH 7.5, 50 mM NaCl; too weak to quantify
T1 construct: gene SP_0314; N-terminal CBM70 module, Lys53-Ser212, N-terminal His6 tag with thrombin site (pET28), recombinant in E. coli; ITC construct; 4D0Q is the C-terminally His6-tagged Asn54-Ser212 form, unliganded
From the text: isothermal titration calorimetry on SpCBM70

[2] = molecular target: the molecule itself; test: dynamic light scattering; 25 °C, triplicate, 15 acquisitions of 5 s, after size exclusion chromatography and 0.22 µm filter; Hyl 1.0-10.8 mg/ml, PL8 1.4-10.9 mg/ml; associated fraction from expected radii of a globular monomer and dimer; Kd = [monomer]^2/[dimer], dimer to monomers
[3] = molecular target: the molecule itself; test: small angle X-ray scattering; 50 mM Tris-HCl pH 8.0, 500 mM NaCl, 288 K, Hyl 1.0-10.8 mg/ml; monomer/dimer mixture modelled with SASREF7MX (P2 symmetry, 30 runs each at 1.0-2.7 mg/ml) and OLIGOMER; Kd = [monomer]^2/[dimer], dimer to monomers

Row | Molecule | Ka [1] | Kd [2] | stoichiometry N [2] | Kd [3] | stoichiometry N [3]
1 | Hyaluronan 4-mer | > 5 × 10^3 | – | – | – | –
2 | PL8 catalytic domain of Streptococcus pneumoniae hyaluronate lyase (residues Lys288-Gln1009) (domain or fragment, Hyaluronate lyase (Hyl) of Streptococcus pneumoniae, PL8 catalytic domain, residues Lys288-Gln1009; The His6 tag is joined by a thrombin cleavage site; Expected mass printed as 82 kDa; also called PL8 domain; isolated PL8 domain; source: recombinant, pET28, autoinduction culture) KDAYTDRLDDWNGIIAGNQYYDSKNEQMAKLNQELEGKVADSLSSISSQADRTYLWEKFSNYKTSANLTATYRKLEEMAKQVTNPSSRYYQDETVVRTVRDSMEWMHKHVYNSEKSIVGNWWDYEIGTPRAINNTLSLMKEYFSDEEIKKYTDVIEKFVPDPEHFRKTTDNPFKALGGNLVDMGRVKVIAGLLRKDDQEISSTIRSIEQVFKLVDQGEGFYQDGSYIDHTNVAYTGAYGNVLIDGLSQLLPVIQKTKNPIDKDKMQTMYHWIDKSFAPLLVNGELMDMSRGRSISRANSEGHVAAVEVLRGIHRIADMSEGETKQCLQSLVKTIVQSDSYYDVFKNLKTYKDISLMQSLLSDAGVASVPRPSYLSAFNKMDKTAMYNAEKGFGFGLSLFSSRTLNYEHMNKENKRGWYTSDGMFYLYNGDLSHYSDGYWPTVNPYKMPGTTETDAKRADSDTGKVLPSAFVGTSKLDDANATATMDFTNWNQTLTAHKSWFMLKDKIAFLGSNIQNTSTDTAATTIDQRKLESGNPYKVYVNDKEASLTEQEKDYPETQSVFLESFDSKKNIGYFFFKKSSISMSKALQKGAWKDINEGQSDKEVENEFLTISQAHKQNRDSYGYMLIPNVDRATFNQMIKELESSLIENNETLQSVYDAKQGVWGIVKYDDSVSTISNQFQVLKRGVYTIRKEGDEYKIAYYNPETQESAPDQEVFKKLEQ | – | ~180 µM | 2 | – | –
3 | Streptococcus pneumoniae hyaluronate lyase, construct with the CBM, middle (linker) and PL8 domains (residues Lys53-Lys1006) (enzyme, Hyaluronate lyase (Hyl) of Streptococcus pneumoniae, a 1066-amino acid protein; residues Lys53-Lys1006, amplified from genomic DNA; lacks the N-terminal secretion signal peptide and the C-terminal cell-wall anchoring motif; the results section prints 53-1007; The His6 tag is joined by a thrombin cleavage site; Theoretical mass printed as 110.6 kDa; In solution a monomer/dimer mixture; also called …) KNLVENGDFGQTEDGSSPWTGSKAQGWSAWVDQKNSADASTRVIEAKDGAITISSHEKLRAALHRMVPIEAKKKYKLRFKIKTDNKIGIAKVRIIEESGKDKRLWNSATTSGTKDWQTIEADYSPTLDVDKIKLELFYETGTGTVSFKDIELVEVADQLSEDSQTDKQLEEKIDLPIGKKHVFSLADYTYKVENPDVASVKNGILEPLKEGTTNVIVSKDGKEVKKIPLKILASVKDAYTDRLDDWNGIIAGNQYYDSKNEQMAKLNQELEGKVADSLSSISSQADRTYLWEKFSNYKTSANLTATYRKLEEMAKQVTNPSSRYYQDETVVRTVRDSMEWMHKHVYNSEKSIVGNWWDYEIGTPRAINNTLSLMKEYFSDEEIKKYTDVIEKFVPDPEHFRKTTDNPFKALGGNLVDMGRVKVIAGLLRKDDQEISSTIRSIEQVFKLVDQGEGFYQDGSYIDHTNVAYTGAYGNVLIDGLSQLLPVIQKTKNPIDKDKMQTMYHWIDKSFAPLLVNGELMDMSRGRSISRANSEGHVAAVEVLRGIHRIADMSEGETKQCLQSLVKTIVQSDSYYDVFKNLKTYKDISLMQSLLSDAGVASVPRPSYLSAFNKMDKTAMYNAEKGFGFGLSLFSSRTLNYEHMNKENKRGWYTSDGMFYLYNGDLSHYSDGYWPTVNPYKMPGTTETDAKRADSDTGKVLPSAFVGTSKLDDANATATMDFTNWNQTLTAHKSWFMLKDKIAFLGSNIQNTSTDTAATTIDQRKLESGNPYKVYVNDKEASLTEQEKDYPETQSVFLESFDSKKNIGYFFFKKSSISMSKALQKGAWKDINEGQSDKEVENEFLTISQAHKQNRDSYGYMLIPNVDRATFNQMIKELESSLIENNETLQSVYDAKQGVWGIVKYDDSVSTISNQFQVLKRGVYTIRKEGDEYKIAYYNPETQESAPDQEVFKK | – | ~37 µM | – | ~43 µM | 2

Source: paper PMC4175358, “Conformational Analysis of the Streptococcus pneumoniae Hyaluronate Lyase and Characterization of Its Hyaluronan-specific Carbohydrate-binding Module*^([image sbox.jpg])” (The Journal of Biological Chemistry, 2014)
